Changes are numbered by the printed parent chain. Numbers in names are those of the source.
Key:
β1AR-84 [1] = biological target: T1, β1AR-84 (Meleagris gallopavo, UniProt P07700, C116L/C358A/D322K/DEL244-271/F327A/F338M/M44C/M90V/V103C); assay: Saturation binding assay, ^3H-DHA binding to β1AR-84; design: species or system turkey; details: insect cell membranes, 20° C.
T1 construct: His6 (C); made in house; host or cells: Trichoplusia ni (High Five) insect cells, BaculoGold baculovirus
Experimental: FIG. 2. Saturation binding data for β1AR constructs. […] Data represent mean±SEM of three independent experiments. Curves shown are from a representative experiment performed in duplicate.
Insect cells expressing β1AR were resuspended in 1 ml of assay buffer (20 mM HEPES, pH 7.5, 100 mM NaCl), supplemented with Complete EDTA-free protease inhibitors (Roche). Cells were broken by 10 passages through a bent 26 G needle. Cell debris was removed by centrifugation (3000 g for 5 mins at 4° C.). The supernatant was diluted and 2×0.96 ml aliquots taken for each sample. Alprenolol (120 μl) was added to the negative sample (1 mM final concentration) and assay buffer (120 μl) was added to the positive sample. Samples were aliquoted (12×108 μl) into a PCR plate. [^3H]-dihydroalprenolol (12 μl) was added to each well (to give final concentrations in the range: 2.5 nM-2.56 μM). Samples were mixed and incubated at 20° C. for 2 h. Samples (2×50 μl duplicates) were vacuum filtered through 96-well glass fibre filter plates (Merck Millipore), pre-soaked with PEI (0.1%). Each well was washed with assay buffer (3×200 μl). Filters were dried, punched into scintillation vials and 4 ml Ultima Gold scintillant (Perkin Elmer) was added. Radioactivity was quantified by scintillation counting (1 min per sample) using a Tri-Carb counter (Perkin Elmer). Data for negative samples were subtracted from positive samples. […]

β1AR-84 [2] = biological target: T1, β1AR-84; type: binding, turkey; details: membranes
[3] = Thermostability of GDP-bound mini G proteins by differential scanning fluorimetry (DSF); type: physicochemical; details: mini-G protein alone, GDP-bound
Experimental: SYPRO-orange (15 μl) was added from a 20× stock solution to give a final concentration of 2×. Samples were mixed and 2×50 μl aliquots (duplicates) were transferred to 0.2 ml PCR tubes (Qiagen). Thermostability measurements were performed using a Rotor-Gene Q (Qiagen). Samples were equilibrated for 90 s at 25° C. before ramping from 25 to 99° C. at 4 s/° C. The melting temperature (Tm), corresponding to the inflection point of the curve, was derived from analysis using the Rotor-Gene Q software. Tm values were calculated as the mean±SEM from three independent experiments.
(§1) For constructs see FIGS. 29 and 35-37. Expression, purification and stability measurements by differential scanning fluorimetry (DSF) of the mini-G proteins as well as the non-lipidated Gβ1γ2 dimer, were performed following the protocols described in Example 1. The stability of mini-G proteins was also determined in detergent using native DSF (NanoTemper Prometheus). Mini-G proteins (2 mg/ml) in 50 mM HEPES pH 7.5 (KOH), 20 mM MgCl2, 50 mM NaCl, 1 μM GDP were mixed with either no detergent (control), 0.1% LMNG or 0.1% DDM. Samples were incubated on ice (minimum 30 min) prior to heating on the Prometheus (20% excitation, 15° C.-85° C., rate of 2.0° C./min) and the onset of scattering determined.

[4] = Stability of mini-G proteins in detergent by native DSF; type: physicochemical; details: 2 mg/ml, onset of scattering
Experimental: as §1

A2AR = A2AR (Homo sapiens, UniProt P29274, N154A); assay: Thermostability assay of ^3H-NECA-bound A2AR
Chain of A2AR (P29274 1-317 N154A): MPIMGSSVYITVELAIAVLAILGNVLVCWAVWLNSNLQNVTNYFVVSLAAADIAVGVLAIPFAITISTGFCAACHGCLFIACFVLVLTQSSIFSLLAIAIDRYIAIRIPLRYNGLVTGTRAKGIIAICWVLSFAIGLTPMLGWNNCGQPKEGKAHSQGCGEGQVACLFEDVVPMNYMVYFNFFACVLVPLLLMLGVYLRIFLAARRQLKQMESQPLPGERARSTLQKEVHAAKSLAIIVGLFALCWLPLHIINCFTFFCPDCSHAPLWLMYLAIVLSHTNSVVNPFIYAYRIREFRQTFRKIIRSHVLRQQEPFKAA
Experimental: The samples were incubated at room temperature for 1 h, then chilled on ice for 30 min. DDM, DM or OG were added to a final concentration of 0.1%, 0.13% or 0.8%, respectively, and samples were incubated on ice for 1 h. Cell debris was removed by centrifugation for 5 min at 20,000×g and the supernatant was aliquoted into PCR strips. Samples were heated to the desired temperature for exactly 30 min, then quenched on ice for 30 min. Samples (50 μl) were loaded onto gel filtration resin packed into a 96-well filter plate (Millipore), which was centrifuged to separate receptor-bound from free radioligand. […] Data were analyzed by nonlinear regression using GraphPad Prism software. Apparent Tm values were derived from sigmoidal dose-response analysis. Results represent the mean±SEM of two independent experiments, performed in duplicate.
Samples were heated to the desired temperature for exactly 30 min, then quenched on ice for 30 min. Samples (50 μl) were loaded onto gel-filtration resin (Toyopearl HW-40F) packed into a 96-well filter plate (Millipore), which was centrifuged to separate receptor-bound from free radioligand [28]. […] Data were analysed by nonlinear regression using GraphPad Prism software. Apparent Tm values were derived from sigmoidal dose-response analysis performed by non-liner regression. Results represent the mean±SEM of two independent experiments, performed in duplicate.

T1 sequence (P07700 other isoform, or with tags, fused parts or gaps M44C/M90V/V103C/C116L/DEL244-271/D322K/F327A/F338M/C358A): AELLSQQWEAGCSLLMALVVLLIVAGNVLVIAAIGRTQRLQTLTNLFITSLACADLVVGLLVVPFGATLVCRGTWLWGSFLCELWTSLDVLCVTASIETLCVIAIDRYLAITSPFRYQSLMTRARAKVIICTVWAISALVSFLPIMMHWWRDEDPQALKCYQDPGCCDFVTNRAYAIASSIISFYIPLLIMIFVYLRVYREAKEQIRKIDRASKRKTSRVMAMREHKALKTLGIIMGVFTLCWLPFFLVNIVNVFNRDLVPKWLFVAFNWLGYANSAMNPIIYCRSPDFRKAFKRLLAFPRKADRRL

Work on CCCc1ccccc1OCC(O)CNC(C)C (centres unmarked) [^3H-DHA, ^3H-dihydroalprenolol] yielded a Kd (β1AR-84 [1]) of 20 ± 3 nM.

In the case of “Gs: non-lipidated Gs (Gαsβ1γ2) heterotrimer [reference compound]”, the “shift of isoprenaline Ki of β1AR-84 in response to binding partner, 20° C.” value (β1AR-84 [2]; relative to uncoupled […]) is reported as 9.6 fold.

B1: Mini-Gs/i148: mini-Gs/i1 chimera construct 48; SEQ ID NO:112 (protein)
chain: MGHHHHHHENLYFQGNSKTEDQRNEEKAQREANKKIEKQLQKDKQVYRATHRLLLLGADNSGKSTIVKQMRILHGGSGGSGGTSGIFETKFQVDKVNFHMFDVGGQRDERRKWIQCFNDVTAIIFVVDSSDYNRLQEALNLFKSIWNNRWLRTISVILFLNKQDLLAEKVLAGKSKIEDYFPEFARYTTPEDATPEPGEDPRVTRAKYFIRDEFLRISTASGDGRHYCYPHFTCAVDTENARRIFNDVTDIIIKMNLRDCGLF
modifications: Mini-Gs/i148
In the case of B1, the “Stability measured by DSF” value [3] is reported as 72.1 ± 0.1 °C.

B2: mini-Gs/o_16: mini-Gs/o1 chimera construct 16; SEQ ID NO:139 (protein)
chain: B1 chain with K254A, D259G, F263Y
modifications: miniGs/o_16
In the case of B2, the “Stability measured by DSF” value [3] is reported as 69.0 ± 0.1 °C.

B3: Mini-G128: mini-G protein of G12, construct 8; SEQ ID NO:114 (protein)
chain: MGHHHHHHENLYFQGIDALLARERRAVRRLVKILLLGADNSGKSTFLKQMRIIHGGSGGSGGTKGIVEHDFVIKKIPFKMVDVGGQRSQRQKWFQCFDGITSILFMVDSSDYNRLVESMNDFETIVNNKLFFNVSIILFLNKMDLLVEKVKTVSIKKHFPDFRGDPHRLEDVQRYLVQCFDRKRRNRSKPLFHHFTTAIDTENARFIFHAVKDTILQENLKDIMLQ
modifications: Mini-G128
With B3 the “Stability measured by DSF” value [3] was 73 °C, the “Stability measured by DSF” value ([3]; listed as Gl2 8) was 72.6 ± 0.3 °C and the “Stability in detergent measured by native DSF, 0.1% DDM” value (shortened to “Stability in detergent … 0.1% DDM”) [4] was 41.2 ± 0.2 °C. The “Stability in detergent measured by native DSF, 0.1% LMNG” value (from here on “Stability in detergent … 0.1% LMNG”) [4] was 46.0 ± 0.1 °C and the “Stability in detergent measured by native DSF, No detergent” value (from here on “Stability in detergent … No detergent”) [4] was 50.3 ± 0.1 °C.

B4: Mini Gs393 (protein)
chain: MGHHHHHHENLYFQGIEKQLQKDKQVYRATHRLLLLGADNSGKSTIVKQMRILHGGSGGSGGTSGIFETKFQVDKVNFHMFDVGGQRDERRKWIQCFNDVTAIIFVVDSSDYNRLQEALNDFKSIWNNRWLRTISVILFLNKQDLLAEKVLAGKSKIEDYFPEFARYTTPEDATPEPGEDPRVTRAKYFIRDEFLRISTASGDGRHYCYPHFTCAVDTENARRIFNDCRDIIQRMHLRQYELL
modifications: N-terminal His tag, TEV site; MINI GS393
With B4 the “GTP-mediated dissociation of β1AR-84 complexes” value (β1AR-84 [2]; 0.25 mM GTPγS) was “completely resistant”, the “Stability measured by DSF” value [3] was 65.3 ± 0.0 °C and the “Stability in detergent … 0.1% DDM” value [4] was 39.1 ± 0.0 °C. The “Stability in detergent … 0.1% LMNG” value [4] was 44.9 ± 0.2 °C and the “Stability in detergent … No detergent” value [4] was 47.7 ± 0.2 °C.

B5: Mini-Gs/i143: mini-Gs with 9 α5 helix mutations changing coupling specificity to Gi1; SEQ ID NO:111 (protein)
chain: B4 chain with C228V, R229T, Q233I, R234K, H236N, Q239D, Y240C, E241G, L243F
modifications: Mini-Gs/i143
In the case of B5, the “Stability measured by DSF” value [3] is reported as 69.0 ± 0.1 °C, the “Stability in detergent … 0.1% DDM” value [4] is reported as 35.9 ± 0.1 °C and the “Stability in detergent … 0.1% LMNG” value [4] is reported as 41.1 ± 0.1 °C. The “Stability in detergent … No detergent” value [4] was 44.8 ± 0.0 °C.

B6: Mini-Gs/q57: mini-Gs with five C-terminal residues changed to Gαq (Q390E, E392N, L394V) (protein)
chain: B4 chain with Q239E, E241N, L243V
modifications: Mini-Gs/q57
For B6, the “coupling of mini-Gs/q chimera to A2AR (thermostability assay and SEC)” value (A2AR) was “still observed”.

B7: Mini-Go112: mini-G protein of Go1, construct 12; SEQ ID NO:113 (protein)
chain: MGHHHHHHENLYFQGIEKNLKEDGISAAKDVKLLLLGADNSGKSTIVKQMKIIHGGSGGSGGTTGIVETHFTFKNLHFRLFDVGGQRSERKKWIHCFEDVTAIIFCVDLSDYNRMHESLMDFDSICNNKFFIDTSIILFLNKKDLFGEKIKKSPLTICFPEYTGPNTYEDAAAYIQAQFESKNRSPNKEIYCHMTCATDTNNAQVIFDAVTDIIIANNLRGCGLY
modifications: Mini-Go112
With B7 the “Stability measured by DSF” value ([3]; listed as Go1 12) was 63.8 ± 0.1 °C, the “Stability measured by DSF” value ([3]; listed as mini-Go1) was 64 °C and the “Stability in detergent … 0.1% DDM” value [4] was 32.6 ± 0.2 °C. The “Stability in detergent … 0.1% LMNG” value [4] was 40.7 ± 0.1 °C and the “Stability in detergent … No detergent” value [4] was 43.6 ± 0.2 °C.

B8: Mini-Gs/q70: mini-Gs with R380K Q384L R385Q H387N Q390E E392N L394V (protein)
chain: GIEKQLQKDKQVYRATHRLLLLGADNSGKSTIVKQMRILHGGSGGSGGTSGIFETKFQVDKVNFHMFDVGGQRDERRKWIQCFNDVTAIIFVVDSSDYNRLQEALNDFKSIWNNRWLRTISVILFLNKQDLLAEKVLAGKSKIEDYFPEFARYTTPEDATPEPGEDPRVTRAKYFIRDEFLRISTASGDGRHYCYPHFTCAVDTENARRIFNDCKDIILQMNLREYNLV
With B8 the “Stability measured by DSF” value [3] was 67.2 ± 0.4 °C, the “Stability in detergent … 0.1% DDM” value [4] was 36.2 ± 0.1 °C and the “Stability in detergent … 0.1% LMNG” value [4] was 44.2 ± 0.2 °C. The “Stability in detergent … No detergent” value [4] was 47.2 ± 0.3 °C and the “coupling of mini-Gs/q chimera to A2AR (thermostability assay and SEC)” value (A2AR) was “no binding”.

B9: Mini Gs77 (protein)
chain: MGHHHHHHANKKIEKQLQKDKQVYRATHRLLLLGAGESGKSTIVKQMRILHVNGGGDQDALRSRVLTSGIFETKFQVDKVNFHMFDVGGQRDERRKWIQCFNDVTAIIFVVASSSYNMVIREDNQTNRLQEALNLFKSIWNNRWLRTISVILFLNKQDLLAEKVLAGKSKIEDYFPEFARYTTPEDATPEPGEDPRVTRAKYFIRDEFLRISTASGDGRHYCYPHFTCAVDTENIRRVFNDCRDIIQRMHLRQYELL
modifications: MINI GS77
In the case of B9, the “shift of isoprenaline Ki of β1AR-84 in response to binding partner, 4° C.” value (β1AR-84 [2]; relative to uncoupled […]) is reported as 21 fold.

B10: Mini-Golf6: mini-G protein of Golf, 7 point mutations and 3 deletions from mini-Gs; SEQ ID NO:105 (protein)
chain: MGHHHHHHENLYFQGIEKQLQKERLAYKATHRLLLLGADNSGKSTIVKQMRILHGGSGGSGGTSGIFETRFQVDKVNFHMFDVGGQRDERRKWIQCFNDVTAIIYVADCSDYNRLRESLDDFESIWNNRWLRTISIILFLNKQDMLAEKVLAGKSKIEDYFPEYANYTVPEDATPDAGEDPKVTRAKFFIRDLFLRISTATGDGKHYCYPHFTCAVDTENARRIFNDCRDIIQRMHLKQYELL
modifications: Mini-Golf6
For B10, the “Stability measured by DSF” value ([3]; listed as Golf 6) was 64.8 ± 0.4 °C, the “Stability measured by DSF” value ([3]; listed as mini-Golf) was 65 °C and the “Stability in detergent … 0.1% DDM” value [4] was 37.4 ± 0.2 °C. The “Stability in detergent … 0.1% LMNG” value [4] was 41.9 ± 0.0 °C and the “Stability in detergent … No detergent” value [4] was 44.3 ± 0.1 °C.

From patent US11339383B2, “G proteins” (HEPTARES THERAPEUTICS LIMITED, priority 2016, dated 2022)
